Measured values published in patent US8492329B2, “Bioactive peptides and methods of using same” (Compugen Ltd., priority 2007, dated 2013).
“Also recorded” adds a separate entry of the source. No end group written: not given here.

Tests used:
GPR135 (RXFP3) = biological target: T1, GPR135 (RXFP3) (Homo sapiens, UniProt Q9NSD7); assay: cAMP HTRF assay on Euroscreen RXFP3 recombinant cells; format: cell-based; settings: increasing concentrations, 30 min; FIG. 5
T1 construct: host or cells: CHO-K1 recombinant cell line (Euroscreen)
T1 sequence (Q9NSD7 1-469): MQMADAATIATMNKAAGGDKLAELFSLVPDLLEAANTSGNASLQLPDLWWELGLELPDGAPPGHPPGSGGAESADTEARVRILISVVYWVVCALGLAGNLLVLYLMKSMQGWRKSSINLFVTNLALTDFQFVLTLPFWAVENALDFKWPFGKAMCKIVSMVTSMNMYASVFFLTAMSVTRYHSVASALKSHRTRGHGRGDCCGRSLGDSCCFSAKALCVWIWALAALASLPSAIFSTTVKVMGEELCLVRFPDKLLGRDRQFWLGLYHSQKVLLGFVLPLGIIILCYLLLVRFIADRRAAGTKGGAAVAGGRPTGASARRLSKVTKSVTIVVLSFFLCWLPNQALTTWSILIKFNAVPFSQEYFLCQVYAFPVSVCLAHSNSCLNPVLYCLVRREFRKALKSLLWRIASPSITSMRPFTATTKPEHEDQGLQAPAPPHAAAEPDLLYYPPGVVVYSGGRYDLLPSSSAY
Protocol: The ability of P59C13V (SEQ ID NO: 6) and H3 Relaxin to activate CHO-K1 cells transfected by GPR135 (RXFP3), which is a non-LGR, Relaxin related receptor, was tested. The assay was performed by Euroscreen. For cAMP concentration analysis, Euroscreen cat. ES-656-A-cells (RXFP3, Euroscreen cat. ES-656-A) grown to mid-log phase in culture media without antibiotics were detached with PBS-EDTA, centrifuged and resuspended in assay buffer at a concentration of […]. The test was performed in 96 well plates. For agonist testing, 12 μl of cells (5×10^3 cells/well) were mixed with 12 μl of agonist Either H3-Relaxin or P59C13V (P59) (SEQ ID NO: 6) at increasing concentrations. The plates were then incubated for 30 min at room temperature. After addition of the lysis buffer, cAMP concentrations were estimated, according to the manufacturer specification, with the HTRF kit from Cis-Bio International (cat no 62AM2PEB).
.Relaxin 3 Fit (Eeuroscreen) was used as a positive control. RXFP3 (GPCR135) transfected cells were challenged with increasing concentrations of Relaxin 3 (H3 Relaxin—as a positive control—[…]) or P59C13V (P59) (SEQ ID NO: 6) (1 nM-3 uM).

LGR6 = biological target: T2, LGR6 (Homo sapiens, UniProt Q9HBX8); assay: cAMP accumulation in CHO-K1 cells transiently transfected with LGR6; format: cell-based; settings: 1 uM, without Forskolin, FIG. 3A
T2 construct: expressed in transfected cells; host or cells: CHO-K1 (transient)
T2 sequence (Q9HBX8 25-967): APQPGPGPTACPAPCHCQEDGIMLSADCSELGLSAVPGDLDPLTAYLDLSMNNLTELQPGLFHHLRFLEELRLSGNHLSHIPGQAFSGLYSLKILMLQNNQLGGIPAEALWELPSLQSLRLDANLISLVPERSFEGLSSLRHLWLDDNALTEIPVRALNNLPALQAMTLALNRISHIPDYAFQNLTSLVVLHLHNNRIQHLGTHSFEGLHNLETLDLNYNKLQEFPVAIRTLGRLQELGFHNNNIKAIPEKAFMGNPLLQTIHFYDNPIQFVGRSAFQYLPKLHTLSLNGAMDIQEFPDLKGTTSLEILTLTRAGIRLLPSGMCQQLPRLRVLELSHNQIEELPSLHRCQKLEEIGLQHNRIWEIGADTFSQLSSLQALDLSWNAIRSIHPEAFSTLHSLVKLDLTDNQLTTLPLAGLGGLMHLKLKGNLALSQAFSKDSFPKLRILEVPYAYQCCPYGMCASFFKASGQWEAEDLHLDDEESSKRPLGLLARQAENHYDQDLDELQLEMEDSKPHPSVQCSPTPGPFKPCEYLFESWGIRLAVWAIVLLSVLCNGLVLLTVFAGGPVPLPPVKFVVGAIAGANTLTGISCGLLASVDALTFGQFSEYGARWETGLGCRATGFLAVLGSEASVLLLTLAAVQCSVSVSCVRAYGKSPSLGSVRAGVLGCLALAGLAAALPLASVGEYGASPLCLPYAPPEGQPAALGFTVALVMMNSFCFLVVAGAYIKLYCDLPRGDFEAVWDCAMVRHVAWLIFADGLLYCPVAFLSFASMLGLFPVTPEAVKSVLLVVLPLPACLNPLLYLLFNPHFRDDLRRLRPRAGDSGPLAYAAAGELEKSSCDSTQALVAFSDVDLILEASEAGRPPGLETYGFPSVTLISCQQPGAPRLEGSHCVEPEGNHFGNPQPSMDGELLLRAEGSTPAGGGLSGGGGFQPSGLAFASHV
Protocol: [The procedure below names another target; the source says it served here with some conditions changed.] LGR7 (RXFP1) or LGR8 (RXFP2) were transiently transfected into CHO-K1 cells as follows: Cells (12 million) were plated into T75 flasks on the day preceding transfection. Cells were transfected with a GPCR DNA and Gα16 using a lipid technique according to the manufacturer's recommendation. Cells were transfected for 5 hours, then re-plated into 96-well dishes (60,000 cells per well) and grown overnight. Transfected cells were plated into 24 wells of a 96-well plate. Cells were pre-treated with 0.5 mM IBMX (stimulation buffer) for 10 min at 37° C., then stimulated with either a positive control (Relaxin 2) or a candidate peptide (for Gs functional examination), followed by stimulation or a preincubation with 10 μM forskolin (for Gi functional examination). Following a 20 minutes stimulation by incubation with 1 μM of either positive control or the tested peptides, either with or without forskolin, intracellular cAMP was assayed using the Hit Hunter cAMP kit (DiscoveRx Corporation) according to the manufacturer's recommended protocol. Data was converted to nmol of cAMP by running a standard cAMP curve.

cAMP activation (Gs) of RXFP3 (GPR135 (RXFP3)) | Substance | Gs activation (cAMP accumulation) (LGR6)
didn't show any cAMP activation (Gs) | GQKGQVGPPGAAVRRAYAAFSV [Peptide P59C13V] | 
 | GQKGQVGPPGAAVRRAYAAFSVGRRAYAAFSV-OH [Peptide P74C13V] | significant increase in cAMP accumulation; also recorded: slight Gs activation
